The supplement of paper PMC9170038

system: K4 kissing-loop RNA reporter; test: apparent KD of K4 kissing-loop reporter; higher = weaker reporter binding; conditions: Eterna round: R107; input ligand: FMN 200 uM
Experimental: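 RNA-MaP round R107: designed RNA switches with theophylline, tryptophan, arginine or FMN aptamers are transcribed on-chip within common flanks. They are titrated with a labelled K4 kissing-loop RNA reporter in RNA-MaP buffer (100 mM Tris pH 7.5, 80 mM KCl, 4 mM MgCl2), without ligand or with the indicated ligand. Median apparent KD per design.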
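Note: bound reporter read as fluorescence of individual clusters on recovered sequencing chips by microscopy, with normalized cluster intensities fitted with a binding model.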

Sequence | apparent KD of K4 kissing-loop reporter [nM]
UCAGUGAUGUUGAACAAAUAAUGGUUCCUAAAGGAUAUCCACAGAUGGAGAAGGUUAGUAGCGGCUCGCACAUCGUAGGACAAAU [theeternabot_exclusion_KL_FMN_A_1] | 767
UUAGAUCAAAGAUCAGUCUUAUGGAGGGAACGAGGACCGGUACGGCCGCCACUCGAGUGAUGUUCGAGAACCCUCGUGACAAAUU [AK4 EXC Tryptophan A] | 196
ACGCGCGUGCGCUGGAAAGCGCACGCGCGUCGAGGACCGGUACGGCCGCCACUCGCUCGCGCCGAGUGAUGUUCGGCCGGCGAAC [#2 SameState - Tryptophan_A Attempt #2 (HarryS)] | 342
UGUACCGAGUCAGGAUAUGAACGACUGACAAAAGUCGGUCGAAUAUCCAGUGAUGUUGGAAAUAAAUCAGAAGGGACUUGGUACU [FmnBS 15 #SwitchBubble #StaticStem] | 130
GUUCUGAUGGAAACAUCGGAACAUACUGAUACCAGUAUCGAUAGAUACCCUUGGCAGCAGAAUCAGUAAUAACGAGUGAUGUUCG [Ex Theophylline A K4 2] | 275
GAUUCAGUGAUGUUGGAAGGCGAGCGGGAUACCAGCGGAGACUCACGCCCUUGGCAGCCCACAUAUCCCAGGUAGAUAAUAGAUC [Same State - Theophylline A (Freestyle 7)] | 201
UGAUACCAGACGGCCGCCACUACACCAGUCAAAGACUGGAUGUGAUGUUUGACCAGUGAUGUUGGUAGGACCGGGUCUGGUAUCU [TrypBX 5 #Palindromic #SwitchBubble #StaticStem] | 500
AAAAUAAGCCAGUGAUGUUGGGAUCCAGAUACCAGCGACGAAAGUCGCCCUUGGCAGCUGUGGACGUACAAAAUAAGUACGUCCU | 924
UCUCCAGUGAUGUUGGAGACGGAUGAGGAAGGAGCGGGCACGUGCCCAGGUAGGUCGCCUCGAAAGCCCUGUAGCAUCGCGAAAC [Disoribe] | 281
AAGGGCGGGACUUUCUCGCCGGAUAGAGAUACCAGCCCAGCAAUGGGCCCUUGGCAGCUCACUGACCUCAGUGAUGUUGAGGUUC [Quintege] | 310
AUCGUUGUCUGAGGAUAUCGGUUAUCUGUAGUGAUGUUACAGUAUAUUGAUAUUAUAGUUUCUUUUCGAGAAGGCAGACUACGUA [JR_Nu_ExcFMNB_Sub021] | 74.1
UCGCGUAAUGGAAGGAGCGGUGCCAGUGAUGUUGGAUACUGCGUGUAUUAGGUCGGAGCGCACCAGGUAGGUCGCCAUUUGGUGG [Tigedies] | 328
UUUAAAUAUAGUGAUGUUAUAUAACAAUGACGAGGACCGGUACGGCCGCCACUCGAGAGAGAUAAUGGUCGUUCGAAUCGAACGC [AstrosSSTryA#6] | 599
AGAGUUAUGAGAGGAUAUGCGGCUAGUACUCAAAGAGUACUAGCAGCGGAGUGAUGUUCUGCGAAAGCAGAAGGUUCAUAACUCA [#08 K4 FMN B Same State] | 214
UGAUACCAGACGGCCGCCACUAGGGCUAGCAAAGCUAGCAAGUGAUGUUUGAGGAGUGAUGUUCCUAGGACCGGGUCUGGUAUCU [TrypBX 1 #Palindromic #SwitchBubble #StaticStem] | 60.5
AGUAUGUAAUAUGGCAUAUUUAGAACUGAAGGAGCGCCGAAUAAGGCAGGUAGGUCGCGGAAUCAUGAGUGAUGUUCAUGACUAU [KL-SSArg-A26] | 80.6
CGCCGGAAGGCGGUCGCUCCCACUCCGGAAGGAGCGCCCGGAAGGGCAGGUAGGUCGCCGGAGUGAUGUUCCGGUGGAGGGACCG [#2 Exclusion - Arginine A Attempt #10 (Inspired by Omei)] | 230
AACAACUUGUUUGUCGGGUGUUCGCGCGAUACCAGCCGAAUGGAUGGCCCUUGGCAGCGCAGCGAGUGAUGUUCGCCCGCUUGAC [Exclusion Theophylline A GF 24] | 611
GGCAUGGUGGCAGGAUAUCCUAAUAGAGUGAUGUUCUAGCCCUCGUAGGCGAAAGCCUACGAGGGCGGAGAAGGGCCACCAUGCC | 263
ACCAUCAAAGAUGGCCUCGACACCGCUGAUACCAGAGUGAAAACACUCCCUUGGCAGCAGGUGAGUGAUGUUCACAGUCGAAGGA [Omel KL Theo A SS B v1] | 492
UUUAUAUAGUCGGCCGCCACUGGAUUAAUAUUUGUAUAAUCUAGAUCAAAGUGAUGUUUUGAGUCCAGGACCGGGACAUUUGUUA [JR_ExcTryptoB_Sub006] | 539
CCGGACACCUCGGAUACCAGCCUGAGUGAUGUUCAAGCUGAACUCUCUUAAUAGGUCACCGGCCCUUGGCAGCCGCAUCCUAAGC [theeternabot_exclusion_KL_Theo_B_46] | 375
GUCAAGGGUGCGGCCGCCACUUCUAGUGAUGUUAGUUUGUCUUCGUUCAACCGGCGUCUGCACGCAAGGACCGGGCACCAGCGAC [theeternabot_exclusion_KL_Trp_B_10] | 552
CAGGUGCUGAUGCGGUGGCCGGUGGUCGUGCGAGGACCGGUACGGCCGCCACUCGCAUGAGUGAUGUUCAUGUGUCGUCGUCGUC [whbob_EX_Tryp_A_t2] | 229
GACCCAGAAGCACACCUAAAGUUGACAGAUACCAGCGUCGUUUGGCGCCCUUGGCAGCUGGUCAGUGAUGUUGAUAGCUUCGACU [theeternabot_sameState_KL_Theo_A_24] | 197
GCCAGUGAUGUUGGCAUUUCGAGCCAUGAAGGAGCGCACGGAAGUGCAGGUAGGUCGCAUGGUACUUAGGAUAUUAUCCUAAGUA [Antearxe] | 180
